Assay results reported in patent US20170088610A1.
Like-named read-outs stand apart in the source and are kept apart here.

What was measured:
[1] = molecular target: rat nerve growth factor (rat) (UniProt P25427); test: cell-based or functional assay
[2] = molecular target: human nerve growth factor (human) (UniProt P01138); test: cell-based or functional assay
[3] = molecular target: human nerve growth factor (human) (UniProt P01138); test: BIAcore SPR, Fab over immobilised human NGF (100 RU)
[4] = molecular target: human nerve growth factor (human) (UniProt P01138); test: BIAcore SPR, Fab over immobilised human NGF
[5] = molecular target: human nerve growth factor (human) (UniProt P01138); test: BIAcore SPR, Fab over immobilised human NGF (100 RU); remark: listed apart in the source
[6] = molecular target: human nerve growth factor (human) (UniProt P01138)

Sequence of human nerve growth factor (human) (P01138 122-241 limits assumed): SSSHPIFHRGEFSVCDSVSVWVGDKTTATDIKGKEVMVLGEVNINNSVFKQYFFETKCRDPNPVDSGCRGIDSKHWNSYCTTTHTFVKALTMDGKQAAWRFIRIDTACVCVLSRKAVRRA
Sequence of rat nerve growth factor (rat) (P25427 122-241 limits assumed): as the sequence (P01138 122-241 limits assumed) above, with S3T, I6V, R9M, M37T, D60A, D65E, M92T, G94D, V117A, A120G counted along it

| Substance | IC50, rat NGF-dependent survival of mouse E13.5 trigeminal neurons (1.5 pM NGF) [1] [pM] | IC50, rat NGF-dependent survival of mouse E13.5 trigeminal neurons (15 pM NGF) [1] [pM] | IC50, human NGF-dependent survival of mouse E13.5 trigeminal neurons (1.5 pM NGF) [2] [pM] | IC50, human NGF-dependent survival of mouse E13.5 trigeminal neurons (15 pM NGF) [2] [pM] | NGF-elicited survival of E17/18 trigeminal neurons [2] [nM] | koff [3] [s⁻¹] | Kd [4] [nM] | Kd [5] [nM] | koff [5] [s⁻¹] | kon [5] [M⁻¹ s⁻¹] | IC50 (read off the curve), NGF-dependent survival of E13.5 trigeminal neurons (0.4 ng/ml human NGF, 48 h) [6] [nM] |
| --- | --- | --- | --- | --- | --- | --- | --- | --- | --- | --- | --- |
| mouse monoclonal anti-NGF antibody 911 (Fab) | 34.6 | 161 | 63.5 | 322 | 20 | 8.4e-05 | 10 | 3.7 | 9e-05 | 22000 |  |
| trkA receptor immunoadhesin (Fc fusion) |  |  |  |  |  |  |  |  |  |  | 0.07 |
